Patent US20140193415A1 (Hoffmann-La Roche, published 2014)
Blank lines part the entries; values can stand above or below the binder they belong to.

Molecular target: human EGFR on human tumor cells (A549, BxPC3) (human, UniProt P00533 25-1200)
Assay: cell-based or functional assay

Inhibition of EGFR phosphorylation (IC50) A549: 0.23 nM
Inhibition of EGFR phosphorylation (IC50) BxPC3: 0.82 nM
B1: OA-F13B5-scFab-GA201 (bispecific antibody, human IgG1, kappa)
heavy 1: not shown
heavy 2: not shown
light: DIQMTQSPSSLSASVGDRVTITCRASQGINNYLNWYQQKPGKAPKRLIYNTNNLQTGVPSRFSGSGSGTEFTLTISSLQPEDFATYYCLQHNSFPTFGQGTKLEIKRTVAAPSVFIFPPSDEQLKSGTASVVCLLNNFYPREAKVQWKVDNALQSGNSQESVTEQDSKDSTYSLSSTLTLSKADYEKHKVYACEVTHQGLSSPVTKSFNRGEC

Inhibition of EGFR phosphorylation (IC50) A549: 0.19 nM
Inhibition of EGFR phosphorylation (IC50) BxPC3: 0.47 nM
B2: OA-L31D11-scFab-GA201 (bispecific antibody, human IgG1, kappa)
heavy 1: not shown
heavy 2: not shown
light: B1 light

Inhibition of EGFR phosphorylation (IC50) A549: 0.23 nM
Inhibition of EGFR phosphorylation (IC50) BxPC3: 1.67 nM
B3: OA-Ak18-scFab-GA201 (bispecific antibody, V domains shown)
VH 1: QVELVESGGGVVQPGRSQRLSCAASGFTFSSYGMHWVRQAPGKGLEWVAIIWFDGSSTYYADSVRGRFTISRDNSKNTLYLQMNSLRAEDTAVYFCARELGRRYFDLWGRGTLVSVSS
VL 1: EIVLTQSPATLSLSPGERATLSCRASQSVSSYLAWYQQKPGQAPRLLIYDASKRATGIPARFSGSGSGTDFTLTISSLEPEDFAVYYCQQRSKWPPWTFGQGTKVESK
VH 2: QVQLVQSGAEVKKPGSSVKVSCKASGFTFTDYKIHWVRQAPGQGLEWMGYFNPNSGYSTYAQKFQGRVTITADKSTSTAYMELSSLRSEDTAVYYCARLSPGGYYVMDAWGQGTTVTVSS
VL 2: DIQMTQSPSSLSASVGDRVTITCRASQGINNYLNWYQQKPGKAPKRLIYNTNNLQTGVPSRFSGSGSGTEFTLTISSLQPEDFATYYCLQHNSFPTFGQGTKLEIKRT
